# Data reported in the domain aggregation screens of Martell et al. (2025).
# Assay: soluble fraction after stress (log2 fold change); higher = more stays soluble; pooled small domains, quantitative proteomics
# Details: stress: 50 degC
# Outline: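 Custom libraries of small protein domains were pooled and measured in a high-throughput format, with quantitative proteomics as the read-out. Each library was stressed at 50°C. The value is the log2 fold change in the amount of each protein that stays soluble after stress, used as a measure of aggregation propensity; higher values mean more of the protein stays soluble.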
row,Sequence,soluble fraction (log2)
1,HMEELLVAVKADGSIWADGRPITPDGLASFIDSKPADAVLNLAVDKKAPFAAFVKVVDVAKEKKSGRFVIR,0.0577
2,HMAEVDREEALRIALAHAAVARRDVRNLKIERGEENGVPVYKVEFETAFGDFDVAVSRRSGDVVDAD,0.0689
3,HMISKRFQVDEENSNNRVDIFLANNLDSISRGIVQQLILDGKVLVNGETVKRNHLLKTNDEVDISFEI,0.298
4,HMVGVDMTVKEEVGKEGVTFTDLRPAGKVEIGNDIYDAVSNTGAFIQKGEKVKIIKYQAGQVYVEKLV,-0.121
5,HMLTEEVEISLMDMTKPTQPATIKTTATIQKGATTVMPKQIKMPEGYEFYGNYKMDQPFELTMTFVVKKI,0.115
6,HMDPPQEVWDLTRSYLDSMNRPVHGHKSPQETYLRQVKSHRLPATALWDYFMAQRFHAVHATSESAA,-0.0648
7,HMHLDIGQLVQRILADIQVGKLADGQRKLPAEPVLMERYQVTRYTLRQALKQLSNMGYTYQMHGIGTFVRQ,-0.863
8,HMDNTFEEVKEKLLDLLKERPLTPAEVSKRMEEDKNILAQVIQYLLEEEIIKTEDGMLSKVIG,-0.0569
9,HMTETTTVPKLKGLTKDEAEDAAKSSKIKLEFIDEISKTVEAGVIIKQEKDEGETVNAGDTVKVYVSIGT,0.218
10,HMKMSLKENLLELLQKSSGEFLSGERAAETLGVSRTAVWKAVTSLKNEGYNIESVTNRGYRFS,-0.0145
11,HMEDADERRALEVLNQLLDLPEREQEAALAALSLPPALARRVRSLLSVQTRAADLFDTAPSP,-0.0946
12,HMGGKAITGGEGEIIIRADKAETVAIYGIDGRLVHRVSTEAGDTKRVSVPAGIYIVKGAKVVV,≥ 0.62
13,HMDTSADEVKQLIASFVEQEDKRKPLSDQKIVELLAEKEQKISRRTVAKYRDALNIPSSSKRKRF,0.0434
14,HMEKKKVPEVAGQDEAAARNVMTNSGFVVDVEQKEDDNVPAGKVITTAPAGGVEVVEGTKIILYVSKGSN,0.113
15,HMDPLADLFSRIRNAQMRNKKVVTSPASKLRAGILEVLAKEGYIRGYAMTQHASGKNELDIELN,-1
16,HMDRNIVYSDFIRSVNQGQVSEVLVQGDNIRGRYLNGKVFQTFAPKDPSLISTLRNKGVRISAEPA,0.113
17,HMNYIEWKNTFKKYLYLLPIKEEKETLAYFDEQYNKLNPKDLDNVENIFSDPIDKAAFVVAFYLEMEDEIK,-0.612
18,HMGTISKRINPSGTTVYRAVIRIRKNGYPNFTESRTFSKKSMAAEWVKRREAEIELNPDILFG,-2.13
19,HMKNEVENLSYMINRIIEYRDLNNLSNKNLANKIGISEALLSYILNGRRKLSKEIQRKIALFLLND,-1.49
20,HMKLVTIPNVIGKTKEDAMKTLKDLGVTVTVETKESEKDDGTVIAQSKAEGTKLTAGENVTITVSKKKK,0.139
21,HMAVSTFGRITASSLNVRSGPSTDHEKVGSLAAGRVVELLEESDGWYRIENGYISTEYVTIVDPSQ,-0.355
22,HMTRNEFMTALRKRLSHLPAEEQDAALKYYEEYFDEAESEEEAARQLGSPDAIADRILADYGAG,0.0132
23,HMAKRKYKSFKDVAEFAQKLGIKSSTEWWAYVRGHEIPSDIPKDPSTYYKKEWTTWGDFLGTGYVSSA,0.154
24,HMRTTTGSEGMIGSIGKAKTDLAPDGKIFIHGELWDATSSSPVSAGQKIEVTQIEGLKLHVKPVL,0.268
25,HMGMAQELMESRLTAVFTSGKDQLAVLQRKDGSTLKLGADSKPWRIESFDGRKAVFVSADQQRVERLL,-0.209
26,HMGNHRNMSAEEEAAILAPFKARAEAGELVEISEIAKAYQSAVDHPISRGQIYFVLHRHGWRKV,-0.926

row,Sequence,soluble fraction (log2)
1,HMIYWGTMVDKIYEVLSLAGKPLSLMEIYQQVKVFFPNSTKSSIEASMRLDARHRFKYDVEGHVYSLVD,-1.3
2,HMINAQETEIYRFLIEKANRLYSMVLGLKREELMTATRQFEEEVKHSSIHHLPKIYQAFSSYLELLERG,-0.478
3,HMKLNKRQYAYQVIRSRILDGTYVPGQRIIIDQIAKEVNSSHIPVREAIHQLESEQLIDYEPNIGAIVKG,0.285
4,HMTGDNQTIGGGGFHHVAIRAHDFDASVKFYGETLGFREKIAWGEGDKRAIMMDTGDGNYIEIF,0.197
5,HMTKQRSAIMNLLAERNTPLTAEEIGEAIAPSYPKLALSTVYRNLELFTNAGLLEKSFFQDGITRYSLTK,-0.429
6,HMTQTAVFSKGEQEYYFPLSKVLFFETDGNTINVHTADDIYETRYRLYELEEMLPGSFMRISKSAVVNTNR,-0.0904
7,HMQMRKENKILVTDIGEIDEVKVIFDDDNKPYLYSYNGEDEFYRPDETYKFFDNKEQAEEYVREN,0.0625
8,HMKIAEALNLRGDADSYERQEAIWLLEHIVGMSALELKYRGEQDLTEDQLQQYRSGLQRLEQGEPLAYVIG,-0.396
9,HMVDLAPTEEIIKNLPNNSRSLLIPTLQKIQNAYRYLPSPAMELLSEFLNVTRAEIYGVISFYPSLL,0.0871
10,HMNFMDGFQSFFQESGAMNRPMTADVVSYRLPDGTVQQGNSTMRGLMDQYLKSIGQSPTTGVP,0.00775
11,HMTTQIPEEVQKRVNQFYEALDEEDYGEAKQILEELEKATAPDHPTLIQMRTRYEFDTMELR,0.186
12,HMEELTPLQKYVFDYESDISDEVDMRAIKGLENANDVYDYYANVRGWEGDPDLEDDLDNIYRQVKARFA,0.0161
13,HMNPSIALHDWLQSSEFKGSINLFAAALGMNPRTVEAWVYGRSTPSRRFWAKLYQITNLSRFRL,-0.836
14,HMSYPEIFQSLTEREQKIADMIAEHLSNKEIAEKMFLSEGTIKQYINQIYSKLQITGDIRNKRKQLIELFH,-1.16
15,HMKIQEVDYSTFLNMLNEKSIAQVEIQDNQIAFNSNQEGNKQIYVTGRIEEDTELVNRLQAAGVQFSRV,0.079
16,HMLPDYLIELKKKADSGDAVSQNDIGNIYLYGLPRVNIYPDEKNIGIGIDYLYKAAWQDQVNAMTTI,-0.0456
17,HMNRIEMTEPIIIKDLSRETGIPWVAIQKRLAQDGIMANINTTIEAEKAQLIAVDYGIELAVV,0.0679
18,HMARIDYHAMDSDDLSFSEGELLEIYDKPGSFWWKGRSLVSGDEGDIPS,-0.157
19,HMTKLTTDERSVYLHIQNKPGVSASSIREALGYKKSKLTSILAQLLEVHKIIDTEGTGKSLKYIL,-0.0662
20,HMKMPNGYGSVYKLSGNRRKPWAARVTDGWVNDTKTKKSKQKYKFIGFYETRKEALLALADYNANP,-1.43
21,HMAGWMPGGTNPAEPGRFAVLMDVDDSDAYKHMFLRWNGHAWEFERTRVLVKMEPSWWMRLPDDPEKP,-1.99
22,HMNLYENLATHVKNAIRQGVYQPGDRLPSVRRLSEQHRVSQNTAVSAYRLLESHGWLEARPQSGFFARHP,-1.11
23,HMNKPTSMYKLRLLLKHYHAGASKRWMADVLDISRSTLNVYLARIESLNLAFEEWEALSDLEVSRLLINP,-3.05
24,HMDINMELGKNIRRLRKLNNLTQQSLANQMNRSKTLIALWEKGERDPSSIDLKRLSEIFNVRADDIIG,-0.689
25,HMSESAGKALDILFYLARVEDEVSLARLSKETGMNKATALRYLAVLESWGVVEKRPSGWSLGLSLFELGSK,-2.13
26,HMRARTLSTTGGESLLTLAESLYPDDDRARARFIEATAAANPKLFADIAALTRVLPAGTTLRMPDLRA,0.0417

row,Sequence,soluble fraction (log2)
1,HMERTQSIEAAREQLGEVTKDNVFETETLGALAILKENEPGEYAKIKADLKGKINMNDLERAVKKAAADQR,≥ 0.62
2,HMFVEEGSLKKITFDTYEFNITDNLKSLRVTYQGLLPNLFREGQGVVIEGILLEQNYIQANTVF,0.22
3,HMHQLQLDSRSRLHMTGVIEVESFDEATIVLTTTRGTLIVRGENLHLQLLRLDGGEVLVDGTVDSLSYE,-1.5
4,HMALPGESVYVSILQSGSNRDQGVGYLDDGTMVVVDGAIKDIGKSIEVVINKSHQTVAGKMLFAKKVA,-0.0558
5,HMADPAVLIAELFRAMPEKRFSVKNLISATGAETREQKDYVREVVHSLSREGMIEQVAEGKYRLSASE,0.171
6,HMPMNISDIIKQAREELGMTQEDLAERLEVSRQAVSKWELGASVPSPENLRLLEELLGVELPAP,-0.0297
7,HMAKSPYDVLGLKEDAPFDEVKKRYRELVKKYHPDILMGRGESEEMIEKSTRKLQEINEAYETIKQRA,0.118
8,HMSVLDEVRKLSFHQRNAVFLFYFEGYSMKEIAQIFHVKEGTVSSWLTRARKQLRKQMEEEVLYDESLP,-0.526
9,HMVFKSAQEGLDFYSKQLNDVDATLGRIRRGEESGNGLYGSNRVKNLEEQRKKLDSFVTAYRNAVNAT,0.08
10,HMNKVAQFYRELVSTLSERLRNGERDIDALVEQARVRISQSGELTQSEIENVIRAVRRDLEEFALSYEE,0.0926
11,HMGLKDTEVYMPDVRGLIEEEAQTKLKASFLTMKVSYTSSDEVKKGYVISQAPSADSVVLKGASVTVIVS,-2.07
12,HMEIPTEEILKQKLYYSISEVASWFKVNTSLLRYWENEFDILQPRKTRKGDRLFRVEDIKNLQLIYLL,0.107
13,HMDEALLRATLLDVLVKHHPKIGDKLDVVFALAKAWVSSGSDDDFEVLEKYMERLKPDEALMLASGFSNML,-0.972
14,HMIDKIRYPELIMKLAHQQGGTIKRRDVEQLLHLQTKQAYRELSKLVDAGELVSVGRGPGAHYEVS,0.042
15,HMHIMINPDQLSPEQIQSIRTWAEEGLDLNAIQKRLHEDLNIKLTFMDTRFLLQDLDIRIRQPEPEPEAEQ,-0.00841
16,HMKDMKISTQNILKELATNYPDQTAFRKNVIESTAKSMGYTGKDFYPMLTAETRVKIGTYDLSALLQTV,-0.178
17,HMDILPRMVASEMRAVGVPPERMTREEKGTVIRNLMNAGIHQMKGAVVEIARQLHLSEPTVYRYIKREKG,-0.327
18,HMSGKWSILILHALEQGPKRFNVLHRELSGITQATLTKQLRQLEEDGIILRKAYPQIPPKVEYQLTEIG,-1.74
19,HMTETIPVSERLFRYLFEEKGKRVQKIQQTSHARVRMERSPYSVVVSGTKDAVEAAMESLKATEKELLEA,0.15
20,HMSLETRRYQLPRTDAQTASGLLRSLSGLPGVREVNLSGEGVAYLKVDSKGFDEQNVIKLLAGE,0.307
21,HMFISVDGLIHMGRTHLVILGGVEFARGDMIPETGEVVKSIGADSVVLELPDTGMRRTLNFV,-2.92
22,HMKITIDSVERDETFRLIWGTGWKPKNKIQELAAIQAKKNGLGRMNEVAGLAAWRGIWQQVAEQVAQEVL,-1.04
23,HMAERVWASLLEIKNAVAIEDAKTLEDVDNSEKIAEERIAALNDDAKHPLAIAFIGKLRQDIAEKKIELA,0.379
24,HMRKMNDAVFYVEMSRPKRGYYTATYKLITRNPNSLPEHEITRRFFQMLEETIRKNPPYYLWTH,-0.328
